# US20220135638A1 (Takeda / Millennium, published 2022)
# Numbered stars: 1 amine (or outer) side, 2 acyl side, 3 side chain; on linkers, the order of the positions; unused ones are H or OH. Square brackets hold non-standard residues; d marks the D form. Primed or numbered codes have the meaning given here. Side chains are listed from the residue outwards. Ends that are not written are not given here. * marks the point of attachment. C20 diacid = O=C(O)CCCCCCCCCCCCCCCCCCC(=O)*; C18 diacid = O=C(O)CCCCCCCCCCCCCCCCC(=O)*; C16 diacid = O=C(O)CCCCCCCCCCCCCCC(=O)*; γGlu = O=C(O)[C@H](CCC(=O)[*:2])N[*:1]; Iva = CC[C@](C)(N)C(=O)O; PEG3′ = not defined here; Aib = CC(C)(N)C(=O)O
# T1: full-length human GLP-1R (GenBank NM_002062) with an N-terminal FLAG tag on HEK-293T cells (human), P43220
# T1 chain: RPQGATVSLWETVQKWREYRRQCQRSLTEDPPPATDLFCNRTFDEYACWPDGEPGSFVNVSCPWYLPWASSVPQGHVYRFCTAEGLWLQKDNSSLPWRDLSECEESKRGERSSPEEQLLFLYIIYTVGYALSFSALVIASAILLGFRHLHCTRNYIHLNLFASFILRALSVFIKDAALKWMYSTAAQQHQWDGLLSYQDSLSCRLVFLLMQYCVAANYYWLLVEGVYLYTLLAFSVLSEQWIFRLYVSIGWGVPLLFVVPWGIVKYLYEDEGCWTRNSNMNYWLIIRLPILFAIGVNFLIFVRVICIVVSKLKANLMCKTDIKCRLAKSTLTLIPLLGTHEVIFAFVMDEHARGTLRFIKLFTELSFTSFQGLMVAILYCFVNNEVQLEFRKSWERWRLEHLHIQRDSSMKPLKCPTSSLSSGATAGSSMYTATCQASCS
# T2: full-length human GIPR (GenBank NM_000164) with an N-terminal FLAG tag on HEK-293T cells (human), P48546
# T2 chain: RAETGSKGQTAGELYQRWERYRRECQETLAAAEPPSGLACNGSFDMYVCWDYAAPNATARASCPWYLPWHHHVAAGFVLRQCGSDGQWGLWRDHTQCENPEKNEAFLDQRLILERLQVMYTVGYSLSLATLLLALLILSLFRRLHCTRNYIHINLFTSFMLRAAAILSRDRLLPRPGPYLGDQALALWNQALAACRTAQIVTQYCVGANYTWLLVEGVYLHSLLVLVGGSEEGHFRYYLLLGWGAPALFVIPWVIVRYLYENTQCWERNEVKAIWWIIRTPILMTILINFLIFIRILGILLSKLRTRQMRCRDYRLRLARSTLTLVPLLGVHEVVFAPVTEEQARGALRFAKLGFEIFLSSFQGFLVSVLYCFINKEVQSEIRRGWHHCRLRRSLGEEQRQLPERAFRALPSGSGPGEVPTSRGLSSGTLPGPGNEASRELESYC
# B1: Compound No. 512 (peptide)
# peptide: Y[Aib]EGTFISDYSIALDR[Aib]HQ[Aib]NFVNW[Iva]LAQRPK([PEG3′-γGlu-C16 diacid])SGAPPPSS
# modifications: ends and bridges not checked
# B2: Compound No. 513 (peptide)
# peptide: Y[Aib]EGTFISDYSIALDR[Aib]HQ[Aib]NFVNW[Iva]LAQRPK([PEG3′-γGlu-C18 diacid])SGAPPPS
# modifications: ends and bridges not checked
# B3: Compound No. 505 (peptide)
# peptide: Y[Aib]EGTFISDYSIALDR[Aib]HQ[Aib]NFVNW[Iva]LAQRPSSGAPK([PEG3′-PEG3′-γGlu-C20 diacid])PS
# modifications: ends and bridges not checked
# B4: Compound No. 516 (peptide)
# peptide: Y[Aib]EGTFISDYSIALDR[Aib]HQ[Aib]NFVNW[Iva]LAQRPSK([PEG3′-γGlu-C18 diacid])GAPPPS
# modifications: ends and bridges not checked
# B5: Compound No. 528 (peptide)
# peptide: Y[Aib]EGTFISDYSIALDR[Aib]HQ[Aib]NFVNW[Iva]LAQRPSSGAPK([PEG3′-γGlu-C18 diacid])PS
# modifications: ends and bridges not checked
# B6: Compound No. 524 (peptide)
# peptide: Y[Aib]EGTFISDYSIALDR[Aib]HQ[Aib]NFVNW[Iva]LAQRPSSGAK([PEG3′-γGlu-C16 diacid])PPS
# modifications: ends and bridges not checked
# B7: Compound No. 509 (peptide)
# peptide: Y[Aib]EGTFISDYSIALDR[Aib]HQ[Aib]NFVNW[Iva]LAQRK([PEG3′-γGlu-C16 diacid])SSGAPPPS
# modifications: ends and bridges not checked
# B8: Compound No. 523 (peptide)
# peptide: Y[Aib]EGTFISDYSIALDR[Aib]HQ[Aib]NFVNW[Iva]LAQRPSSGK([PEG3′-γGlu-C20 diacid])PPPS
# modifications: ends and bridges not checked
# B9: Compound No. 522 (peptide)
# peptide: Y[Aib]EGTFISDYSIALDR[Aib]HQ[Aib]NFVNW[Iva]LAQRPSSGK([PEG3′-γGlu-C18 diacid])PPPS
# modifications: ends and bridges not checked
# B10: Compound No. 521 (peptide)
# peptide: Y[Aib]EGTFISDYSIALDR[Aib]HQ[Aib]NFVNW[Iva]LAQRPSSGK([PEG3′-γGlu-C16 diacid])PPPS
# modifications: ends and bridges not checked
# B11: Compound No. 518 (peptide)
# peptide: Y[Aib]EGTFISDYSIALDR[Aib]HQ[Aib]NFVNW[Iva]LAQRPSSK([PEG3′-γGlu-C16 diacid])APPPS
# modifications: ends and bridges not checked
# B12: Compound No. 527 (peptide)
# peptide: Y[Aib]EGTFISDYSIALDR[Aib]HQ[Aib]NFVNW[Iva]LAQRPSSGAPK([PEG3′-γGlu-C16 diacid])PS
# modifications: ends and bridges not checked
# B13: Compound No. 529 (peptide)
# peptide: Y[Aib]EGTFISDYSIALDR[Aib]HQ[Aib]NFVNW[Iva]LAQRPSSGAPK([PEG3′-γGlu-C20 diacid])PS
# modifications: ends and bridges not checked
# B14: Compound No. 530 (peptide)
# peptide: Y[Aib]EGTFISDYSIALDR[Aib]HQ[Aib]NFVNW[Iva]LAQRPSSGAPPK([PEG3′-γGlu-C16 diacid])S
# modifications: ends and bridges not checked
# B15: Compound No. 531 (peptide)
# peptide: Y[Aib]EGTFISDYSIALDR[Aib]HQ[Aib]NFVNW[Iva]LAQRPSSGAPPK([PEG3′-γGlu-C18 diacid])S
# modifications: ends and bridges not checked
# B16: Compound No. 510 (peptide)
# peptide: Y[Aib]EGTFISDYSIALDR[Aib]HQ[Aib]NFVNW[Iva]LAQRK([PEG3′-γGlu-C18 diacid])SSGAPPPS
# modifications: ends and bridges not checked
# B17: Compound No. 526 (peptide)
# peptide: Y[Aib]EGTFISDYSIALDR[Aib]HQ[Aib]NFVNW[Iva]LAQRPSSGAK([PEG3′-γGlu-C20 diacid])PPS
# modifications: ends and bridges not checked
# B18: Compound No. 511 (peptide)
# peptide: Y[Aib]EGTFISDYSIALDR[Aib]HQ[Aib]NFVNW[Iva]LAQRK([PEG3′-γGlu-C20 diacid])SSGAPPPS
# modifications: ends and bridges not checked
# B19: Compound No. 517 (peptide)
# peptide: Y[Aib]EGTFISDYSIALDR[Aib]HQ[Aib]NFVNW[Iva]LAQRPSK([PEG3′-γGlu-C20 diacid])GAPPPS
# modifications: ends and bridges not checked
# B20: Compound No. 519 (peptide)
# peptide: Y[Aib]EGTFISDYSIALDR[Aib]HQ[Aib]NFVNW[Iva]LAQRPSSK([PEG3′-γGlu-C18 diacid])APPPS
# modifications: ends and bridges not checked
# B21: Compound No. 520 (peptide)
# peptide: Y[Aib]EGTFISDYSIALDR[Aib]HQ[Aib]NFVNW[Iva]LAQRPSSK([PEG3′-γGlu-C20 diacid])APPPS
# modifications: ends and bridges not checked
# B22: Compound No. 525 (peptide)
# peptide: Y[Aib]EGTFISDYSIALDR[Aib]HQ[Aib]NFVNW[Iva]LAQRPSSGAK([PEG3′-γGlu-C18 diacid])PPS
# modifications: ends and bridges not checked
# B23: Compound No. 515 (peptide)
# peptide: Y[Aib]EGTFISDYSIALDR[Aib]HQ[Aib]NFVNW[Iva]LAQRPSK([PEG3′-γGlu-C16 diacid])GAPPPS
# modifications: ends and bridges not checked
# B24: Compound No. 514 (peptide)
# peptide: Y[Aib]EGTFISDYSIALDR[Aib]HQ[Aib]NFVNW[Iva]LAQRPK([PEG3′-γGlu-C20 diacid])SGAPPPS
# modifications: ends and bridges not checked
# Target: T1, full-length human GLP-1R (GenBank …)
# Assay: cell-based or functional assay
row,Binder,GLP EC50
1,B1,126 nM
2,B2,> 1000 nM
3,B3,> 1000 nM
4,B4,> 1000 nM
5,B5,> 1000 nM
6,B6,> 1000 nM
7,B7,> 1000 nM
8,B8,> 1000 nM
9,B9,> 1000 nM
10,B10,> 1000 nM
11,B11,> 1000 nM
12,B12,479 nM
13,B13,> 1000 nM
14,B14,> 1000 nM
15,B15,> 1000 nM
16,B16,> 1000 nM
17,B17,> 1000 nM
18,B18,> 1000 nM
19,B19,> 1000 nM
20,B20,> 1000 nM
21,B21,> 1000 nM
22,B22,> 1000 nM
23,B23,> 1000 nM
24,B24,> 1000 nM

# Target: T2, full-length human GIPR (GenBank …)
# Assay: cell-based or functional assay
row,Binder,GIP EC50(pM)
1,B1,0.53 pM
2,B2,0.5 pM
3,B3,2.11 pM
4,B4,1.02 pM
5,B5,0.87 pM
6,B6,1.29 pM
7,B7,0.54 pM
8,B8,2.98 pM
9,B9,1.51 pM
10,B10,0.9 pM
11,B11,0.61 pM
12,B12,0.37 pM
13,B13,1.3 pM
14,B14,0.36 pM
15,B15,1.02 pM
16,B16,0.83 pM
17,B17,1.5 pM
18,B18,1.61 pM
19,B19,1.99 pM
20,B20,1.26 pM
21,B21,2.68 pM
22,B22,0.82 pM
23,B23,0.54 pM
24,B24,1.14 pM
